Measured values taken from patent US20140161821A1, “TREATMENT WITH ANTI-PCSK9 ANTIBODIES” (PFIZER INC., priority 2011, published 2014).

Key:
[1] = Example 3 clinical study, single IV dose on stable atorvastatin: L1L3 pharmacokinetics; conditions: geometric mean
Experimental: Infusion rates were carefully controlled by an infusion device per protocol. Atorvastatin (40 mg daily) was administered as described below in the study protocol. Subjects self-administered atorvastatin during their participation in this study except from Days 1 through 7 during their confinement to the clinic where the same dose was administered by qualified site personnel.
The subjects returned to the clinical research unit for subsequent visits.
In the study, the incidence of subjects meeting toxicity or intolerable dose criteria was measured. Incidence of treatment emergent adverse events (TEAEs) categorized by severity and causal relationship to study drug was also be measured. The timeframe for measurement of each of the above outcomes was two months.
Dose Administration: subjects took sponsor-provided atorvastatin (40 mg). […] Subjects fasted at least 10 hours prior to the lipid panel blood sample on Days 5 and 6.

[2] = molecular target: T1, PCSK9 (Mus musculus, UniProt Q80W65); assay: Serum cholesterol in C57BL/6 mice after single IP dose; format: in vivo; conditions: 10 mg/kg single IP
T1 construct: endogenous in cells; host or cells: live C57BL/6 mice (in vivo, serum PCSK9)
T1 sequence (Q80W65 156-694): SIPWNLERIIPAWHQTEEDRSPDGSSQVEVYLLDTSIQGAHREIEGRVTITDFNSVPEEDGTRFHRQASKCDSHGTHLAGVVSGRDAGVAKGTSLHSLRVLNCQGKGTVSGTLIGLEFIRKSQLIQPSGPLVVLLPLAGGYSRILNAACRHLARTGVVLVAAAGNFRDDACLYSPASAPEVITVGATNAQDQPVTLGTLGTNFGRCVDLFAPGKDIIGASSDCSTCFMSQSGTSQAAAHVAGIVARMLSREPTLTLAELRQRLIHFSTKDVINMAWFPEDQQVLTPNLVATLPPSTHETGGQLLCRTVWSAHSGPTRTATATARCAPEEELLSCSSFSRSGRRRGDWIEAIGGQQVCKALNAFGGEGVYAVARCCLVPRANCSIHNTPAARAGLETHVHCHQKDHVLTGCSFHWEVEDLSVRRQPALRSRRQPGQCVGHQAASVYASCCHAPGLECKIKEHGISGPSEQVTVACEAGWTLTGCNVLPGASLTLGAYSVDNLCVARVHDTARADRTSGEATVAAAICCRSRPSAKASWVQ
T1 sequence (Q80W65 35-155 partner limits assumed): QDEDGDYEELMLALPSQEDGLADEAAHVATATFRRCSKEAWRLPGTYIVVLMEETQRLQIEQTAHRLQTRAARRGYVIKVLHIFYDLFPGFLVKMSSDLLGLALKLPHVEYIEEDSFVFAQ
Experimental: Serum cholesterol levels recovered to 69 mg/dL by day 7 post-treatment.

[3] = tested on: PCSK9; assay: LDL-C and HDL-C in cynomolgus monkeys after IV dosing; format: in vivo
Source text: One (1) mg/kg dosing reached a maximum effect of 71% reduction in LDL-C on day 5, and began to recover immediately thereafter, reaching pre-dose levels by day 14. Three (3) mg/kg dosing reached a maximum effect of 72% reduction in LDL-C by day 7, levels began to recover by day 13, and returned to baseline by day 22. Ten (10) mg/kg dosing maintained the 70% reduction in LDL-C levels until day 21 post-dosing, and animals fully recovered by day 31. […] HDL-C levels were not affected by L1L3 treatment in all dose groups.
These two additional doses again lowered LDL-C and kept LDL-C levels below 50% for 4 weeks. LDL-C levels returned to normal two weeks later.

B1: L1L3: humanized (<5% murine residues) monoclonal PCSK9 antagonist antibody that binds to secreted PCSK9; VH SEQ ID NO: 11, VL SEQ ID NO: 12 (antibody, V domains shown)
VH: QVQLVQSGAEVKKPGASVKVSCKASGYTFTSYYMHWVRQAPGQGLEWMGEISPFGGRTNYNEKFKSRVTMTRDTSTSTVYMELSSLRSEDTAVYYCARERPLYASDLWGQGTTVTVSS
VL: DIQMTQSPSSLSASVGDRVTITCRASQGISSALAWYQQKPGKAPKLLIYSASYRYTGVPSRFSGSGSGTDFTFTISSLQPEDIATYYCQQRYSLWRTFGQGTKLEIK
modifications: heavy chain variable region; light chain variable region
AUCinf ([1]; 0.5 mg/kg L1L3 + atorvastatin): 46338 ng·days/mL | AUCt ([1]; 0.5 mg/kg L1L3 + atorvastatin): 38310 ng·days/mL | CL ([1]; 0.5 mg/kg L1L3 + atorvastatin): 10.8 mL/day/kg | Cmax ([1]; 0.5 mg/kg L1L3 + atorvastatin): 13.827 µg/mL | Vss ([1]; 0.5 mg/kg L1L3 + atorvastatin): 0.0402 L/kg | AUCinf ([1]; 4 mg/kg L1L3 + atorvastatin): 777167 ng·days/mL | AUCt ([1]; 4 mg/kg L1L3 + atorvastatin): 726337 ng·days/mL | CL ([1]; 4 mg/kg L1L3 + atorvastatin): 5.2 mL/day/kg | Cmax ([1]; 4 mg/kg L1L3 + atorvastatin): 105.048 µg/mL | Vss ([1]; 4 mg/kg L1L3 + atorvastatin): 0.0523 L/kg | Serum cholesterol reduction vs saline treated controls ([2]; 48 hours post treatment): 37% | Serum cholesterol levels ([2]; 4 days post-treatment): 44 mg/dL | Serum cholesterol reduction vs control animals ([2]; 4 days post-treatment): 47% | Serum cholesterol levels (recovered) ([2]; day 7 post-treatment): 69 mg/dL | Serum cholesterol levels ([2]; normal diet, 48 hours post treatment): 47 mg/dL | Day by which LDL-C recovered ([3]; single IV 0.1 mg/kg): ≤ 5 days | LDL-C drop (transient) ([3]; single IV 0.1 mg/kg, day 2): 50% | Day by which LDL-C reached pre-dose levels ([3]; single IV 1 mg/kg): ≤ 14 days | LDL-C reduction, maximum effect ([3]; single IV 1 mg/kg, day 5): 71% | Day by which LDL-C returned to baseline ([3]; single IV 3 mg/kg): ≤ 22 days | LDL-C reduction, maximum effect ([3]; single IV 3 mg/kg, by day 7): 72% | Day by which animals fully recovered (LDL-C) ([3]; single IV 10 mg/kg): ≤ 31 days | LDL-C reduction ([3]; single IV 10 mg/kg, maintained until day 21 post-dosing): 70% | HDL-C levels ([3]; single IV 0.1, 1, 3, 10 mg/kg, all dose groups): not affected | Serum HDL-C levels ([3]; two additional IV doses of 3 mg/kg on study days 42 and 56): remained unchanged | LDL-C levels ([3]; two additional IV doses of 3 mg/kg on study days 42 and 56, for 4 weeks): below 50%
